Source: paper doi:10.1101/2021.01.28.428001 (bioRxiv, 2021)
Values belong to the molecule of their own block, whether it stands above or below them.

Experiments:
[1] = target: 2xFLAG-MBP-CYT (cytosolic domain of NOMO1 fused to maltose binding protein) (human); assay: SEC
[2] = target: the molecule itself; assay: SEC-MALS

stoichiometry N [1]: 2
Molecule: 2xFLAG-MBP-CYT (cytosolic domain of NOMO1 fused to maltose binding protein) (domain or fragment)

B1: Nodal Modulator 1 (NOMO1), full length, with C-terminal FLAG tag (natural protein, human, UniProt Q15155 32-1222, looked up)
chain: SEDIVVGCGGFVKSDVEINYSLIEIKLYTKHGTLKYQTDCAPNNGYFMIPLYDKGDFILKIEPPLGWSFEPTTVELHVDGVSDICTKGGDINFVFTGFSVNGKVLSKGQPLGPAGVQVSLRNTGTEAKIQSTVTQPGGKFAFFKVLPGDYEILATHPTWALKEASTTVRVTNSNANAASPLIVAGYNVSGSVRSDGEPMKGVKFLLFSSLVTKEDVLGCNVSPVPGFQPQDESLVYLCYTVSREDGSFSFYSLPSGGYTVIPFYRGERITFDVAPSRLDFTVEHDSLKIEPVFHVMGFSVTGRVLNGPEGDGVPEAVVTLNNQIKVKTKADGSFRLENITTGTYTIHAQKEHLYFETVTIKIAPNTPQLADIIATGFSVCGQISIIRFPDTVKQMNKYKVVLSSQDKDKSLVTVETDAHGSFCFKAKPGTYKVQVMVPEAETRAGLTLKPQTFPLTVTNRPMMDVAFVQFLASVSGKVSCLDTCGDLLVTLQSLSRQGEKRSLQLSGKVNAMTFTFDNVLPGKYKISIMHEDWCWKNKSLEVEVLEDDMSAVEFRQTGYMLRCSLSHAITLEFYQDGNGRENVGIYNLSKGVNRFCLSKPGVYKVTPRSCHRFEQAFYTYDTSSPSILTLTAIRHHVLGTITTDKMMDVTVTIKSSIDSEPALVLGPLKSVQELRREQQLAEIEARRQEREKNGNEEGEERMTKPPVQEMVDELQGPFSYDFSYWARSGEKITVTPSSKELLFYPPSMEAVVSGESCPGKLIEIHGKAGLFLEGQIHPELEGVEIVISEKGASSPLITVFTDDKGAYSVGPLHSDLEYTVTSQKEGYVLTAVEGTIGDFKAYALAGVSFEIKAEDDQPLPGVLLSLSGGLFRSNLLTQDNGILTFSNLSPGQYYFKPMMKEFRFEPSSQMIEVQEGQNLKITITGYRTAYSCYGTVSSLNGEPEQGVAMEAVGQNDCSIYGEDTVTDEEGKFRLRGLLPGCVYHVQLKAEGNDHIERALPHHRVIEVGNNDIDDVNIIVFRQINQFDLSGNVITSSEYLPTLWVKLYKSENLDNPIQTVSLGQSLFFHFPPLLRDGENYVVLLDSTLPRSQYDYILPQVSFTAVGYHKHITLIFNPTRKLPEQDIAQGSYIALPLTLLVLLAGYNHDKLIPLLLQLTSRLQGVRALGQAASDNSGPEDAKRQAKKQKTRRT
stoichiometry N [2]: 2
